Substrate in the data set: O=[N+]([O-])c1ccc(O[C@@H]2O[C@@H](CO)[C@H](O)[C@H]2O)cc1
The data set is described as follows: purified protein. The format is biochemical, Alicyclobacillus sp. A4. Conditions: pH 6.0, McIlvaine buffer, 60 °C, 5 min, substrate 1-10 mM.

The text below walks through data of article PMC4666033, “A novel bifunctional GH51 exo-α-L-arabinofuranosidase/endo-xylanase from Alicyclobacillus sp. A4 with significant biomass-degrading capacity” (Biotechnology for Biofuels, 2015).

B1: Ac-Abf51A (Alicyclobacillus sp. A4) (protein)
chain: MSKSIARMTIDPQYQLADVDPRLFGSFIEHLGRAVYGGIYEPDHPSADEMGFRQDVLELVRELQVPIVRYPGGNFVSGYRWEDGVGPLASRPAQLDLAWRSLEPNRVGVNEFVEWAKRANSEVMMAVNLGTRGIDEAKQIVEYCNHPGGSYWSDLRKSHGYEQPHGIKVWCLGNEMDGPWQIGHKTAEEYGRIAEEAAKVMKWVDPSIELVACGSSGSKMPTFPDWERIVLEHTYDHVEYISMHSYYGNRENDLATYLAQSLDMDHFIRSVIATCDYVKAKKRSKKTINISFDEWNVWFHSNEADKQVAPWQVGPPLLEDVYTFEDALVVGCLLITLLRHADRVKMACLAQLVNVIAPIMTENGGVSWKQTIYYPFLHASRYGRGKVMHCSLQSPKYDCKEFTDVPLVESVAVWNQDIAELTIFAVNRSQDGGIELECDIRGFAQASVIEHTVLVHSDLKAANTKEEPQEVIPQHAQGAKVDGGLLFAPLPKLSWNVIRLRV
notes: no signal peptide; pET-30a(+) NdeI/NotI, C-terminal His tag inferred from cloning; E. coli BL21(DE3); Ni-NTA
As to B1, the Km (as a rule, the substrate concentration at which the rate is half of its maximum) is 460 µM and the kcat (in general, the maximal rate divided by the concentration of active sites) was determined as 23.0 s⁻¹.
